Reference: PMC9482650, “Quantitative fragmentomics allow affinity mapping of interactomes” (Nature Communications, 2022)

Legend:
Assay in all cases: holdup assay
Design in all cases: key: below the threshold = too weak to quantify, mostly under pKd 3.1 to 4
Details in all cases: plain residues with an end cap or a label only (N-terminal biotin on a linker: ado-ado)
NHERF4_1, Q86UT5-2 = molecular target: NHERF4_1, Q86UT5-2
AHNAK1, Q09666 = molecular target: AHNAK1, Q09666
FRMPD1, Q5SYB0 = molecular target: T1, FRMPD1, Q5SYB0
T1 sequence (Q5SYB0 52-145, limits assumed, looked up): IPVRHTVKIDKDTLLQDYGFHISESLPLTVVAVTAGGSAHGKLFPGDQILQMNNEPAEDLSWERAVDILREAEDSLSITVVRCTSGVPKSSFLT

FRMPD3, Q5JV73 = molecular target: FRMPD3, Q5JV73
FRMPD3, Q5JV73, sequence (Q5JV73 12-100): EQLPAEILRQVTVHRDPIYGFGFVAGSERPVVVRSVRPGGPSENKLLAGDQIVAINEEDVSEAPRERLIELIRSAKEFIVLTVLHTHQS

NOS1, P29475 = molecular target: NOS1, P29475
NOS1, P29475, sequence (P29475 9-101): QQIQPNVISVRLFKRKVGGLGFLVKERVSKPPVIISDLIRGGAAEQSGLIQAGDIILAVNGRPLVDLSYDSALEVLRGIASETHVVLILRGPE

DVL3, Q92997 = molecular target: T2, DVL3, Q92997
T2 sequence (Q92997 244-331, limits assumed, looked up): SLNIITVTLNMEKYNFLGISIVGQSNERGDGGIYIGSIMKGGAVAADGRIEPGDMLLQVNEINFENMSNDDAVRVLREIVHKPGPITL

Inadl_10, Q8NI35 = molecular target: Inadl_10, Q8NI35
Inadl_10, Q8NI35, sequence (Q8NI35 1673-1763): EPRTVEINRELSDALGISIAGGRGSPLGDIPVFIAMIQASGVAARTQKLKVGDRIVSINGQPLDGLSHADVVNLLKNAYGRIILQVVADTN

DLG1_3, Q12959 = molecular target: DLG1_3, Q12959
DLG1_3, Q12959, sequence (Q12959 457-571): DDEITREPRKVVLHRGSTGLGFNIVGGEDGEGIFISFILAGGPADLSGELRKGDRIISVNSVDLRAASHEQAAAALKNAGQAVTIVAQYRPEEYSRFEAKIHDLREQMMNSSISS

SCRIB_3, Q14160 = molecular target: SCRIB_3, Q14160
SCRIB_3, Q14160, sequence (Q14160 999-1103): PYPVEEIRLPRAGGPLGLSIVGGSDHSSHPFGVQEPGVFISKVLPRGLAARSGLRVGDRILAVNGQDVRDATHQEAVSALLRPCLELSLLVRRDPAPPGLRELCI

SCRIB_1, Q14160 = molecular target: SCRIB_1, Q14160
SCRIB_1, Q14160, sequence (Q14160 718-814): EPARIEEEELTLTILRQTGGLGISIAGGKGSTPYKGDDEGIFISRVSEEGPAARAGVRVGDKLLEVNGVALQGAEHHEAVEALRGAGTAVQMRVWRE

PTPN3, P26045 = molecular target: PTPN3, P26045
PTPN3, P26045, sequence (P26045 505-587): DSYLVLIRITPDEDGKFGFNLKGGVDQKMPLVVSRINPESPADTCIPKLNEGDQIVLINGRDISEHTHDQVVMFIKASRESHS

DLG1_2, Q12959 = molecular target: DLG1_2, Q12959
DLG1_2, Q12959, sequence (Q12959 314-412): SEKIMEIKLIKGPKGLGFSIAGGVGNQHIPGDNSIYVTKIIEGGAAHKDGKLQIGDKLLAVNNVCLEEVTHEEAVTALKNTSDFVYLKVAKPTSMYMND

Inadl_5, Q8NI35 = molecular target: Inadl_5, Q8NI35
Inadl_5, Q8NI35, sequence (Q8NI35 673-780): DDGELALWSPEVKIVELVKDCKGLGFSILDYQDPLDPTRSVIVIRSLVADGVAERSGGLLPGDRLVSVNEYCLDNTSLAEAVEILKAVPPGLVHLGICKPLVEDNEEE

TJP1_3, Q07157 = molecular target: TJP1_3, Q07157
TJP1_3, Q07157, sequence (Q07157 416-512): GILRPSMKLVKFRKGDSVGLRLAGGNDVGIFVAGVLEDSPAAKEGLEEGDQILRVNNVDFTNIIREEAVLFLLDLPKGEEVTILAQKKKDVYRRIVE

GRIP2_3, Q9C0E4 = molecular target: GRIP2_3, Q9C0E4
GRIP2_3, Q9C0E4, sequence (Q9C0E4 238-339): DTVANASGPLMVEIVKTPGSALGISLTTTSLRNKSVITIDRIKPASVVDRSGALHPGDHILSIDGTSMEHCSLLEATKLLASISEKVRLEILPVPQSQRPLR

Inadl_9, Q8NI35 = molecular target: Inadl_9, Q8NI35
Inadl_9, Q8NI35, sequence (Q8NI35 1530-1615): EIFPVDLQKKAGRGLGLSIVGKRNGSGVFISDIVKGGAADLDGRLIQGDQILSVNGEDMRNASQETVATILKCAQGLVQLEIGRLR

DFNB31_2, Q9P202 = molecular target: T3, DFNB31_2, Q9P202
T3 sequence (Q9P202 274-371, limits assumed, looked up): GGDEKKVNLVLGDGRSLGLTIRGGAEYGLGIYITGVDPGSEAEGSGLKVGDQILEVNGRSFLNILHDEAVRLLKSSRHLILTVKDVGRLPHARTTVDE

GRIP1_5, Q9Y3R0 = molecular target: T4, GRIP1_5, Q9Y3R0
T4 sequence (Q9Y3R0 568-668, limits assumed, looked up): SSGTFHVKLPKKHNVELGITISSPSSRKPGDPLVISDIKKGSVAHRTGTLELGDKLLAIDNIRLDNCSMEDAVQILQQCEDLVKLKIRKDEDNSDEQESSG

Inadl_8, Q8NI35 = molecular target: Inadl_8, Q8NI35
Inadl_8, Q8NI35, sequence (Q8NI35 1425-1530): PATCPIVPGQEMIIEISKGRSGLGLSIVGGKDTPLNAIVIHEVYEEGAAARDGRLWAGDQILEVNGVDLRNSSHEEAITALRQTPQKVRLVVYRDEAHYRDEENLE

TJP2_1, Q9UDY2 = molecular target: TJP2_1, Q9UDY2
TJP2_1, Q9UDY2, sequence (Q9UDY2 24-128): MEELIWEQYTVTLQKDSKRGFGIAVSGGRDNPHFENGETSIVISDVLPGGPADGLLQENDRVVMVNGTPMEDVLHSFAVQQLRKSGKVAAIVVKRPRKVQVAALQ

HTRA3, P83110 = molecular target: T5, HTRA3, P83110
T5 sequence (P83110 354-453, limits assumed, looked up): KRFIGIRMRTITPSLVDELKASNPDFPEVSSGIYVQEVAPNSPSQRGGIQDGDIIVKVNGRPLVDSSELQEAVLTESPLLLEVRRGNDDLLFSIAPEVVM

LNX2_2, Q8N448 = molecular target: T6, LNX2_2, Q8N448
T6 sequence (Q8N448 334-432, limits assumed, looked up): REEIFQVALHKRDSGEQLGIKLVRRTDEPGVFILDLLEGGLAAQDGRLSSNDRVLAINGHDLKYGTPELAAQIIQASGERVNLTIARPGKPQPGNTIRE

Inadl_4, Q8NI35 = molecular target: Inadl_4, Q8NI35
Inadl_4, Q8NI35, sequence (Q8NI35 547-651): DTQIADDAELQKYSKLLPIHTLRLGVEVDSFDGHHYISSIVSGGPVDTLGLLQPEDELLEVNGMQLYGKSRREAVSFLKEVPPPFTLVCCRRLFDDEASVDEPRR

PDLIM1, O00151 = molecular target: PDLIM1, O00151
PDLIM1, O00151, sequence (O00151 1-87): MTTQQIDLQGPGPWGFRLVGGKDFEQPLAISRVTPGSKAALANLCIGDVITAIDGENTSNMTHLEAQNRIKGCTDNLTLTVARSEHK

PDZRN4_1, Q6ZMN7 = molecular target: PDZRN4_1, Q6ZMN7
PDZRN4_1, Q6ZMN7, sequence (Q6ZMN7 213-318): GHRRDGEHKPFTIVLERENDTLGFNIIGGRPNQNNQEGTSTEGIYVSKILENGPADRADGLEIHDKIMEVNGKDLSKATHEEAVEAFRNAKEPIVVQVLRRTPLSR

DLG3_3, Q92796 = molecular target: T7, DLG3_3, Q92796
T7 sequence (Q92796 374-475, limits assumed, looked up): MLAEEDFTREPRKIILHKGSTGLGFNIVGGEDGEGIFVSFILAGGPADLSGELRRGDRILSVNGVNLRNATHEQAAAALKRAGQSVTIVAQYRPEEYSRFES

APBA1_2, Q02410 = molecular target: T8, APBA1_2, Q02410
T8 sequence (Q02410 742-832, limits assumed, looked up): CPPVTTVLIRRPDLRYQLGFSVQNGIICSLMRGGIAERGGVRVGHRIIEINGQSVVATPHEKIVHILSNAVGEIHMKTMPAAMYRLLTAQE

APBA1_1, Q02410 = molecular target: T9, APBA1_1, Q02410
T9 sequence (Q02410 651-752, limits assumed, looked up): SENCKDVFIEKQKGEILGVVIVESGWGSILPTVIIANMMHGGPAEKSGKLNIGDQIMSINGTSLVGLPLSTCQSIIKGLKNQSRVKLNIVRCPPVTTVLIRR

GOPC, Q9HD26 = molecular target: GOPC, Q9HD26

AHNAK1, Q09666, sequence (Q09666 4-100): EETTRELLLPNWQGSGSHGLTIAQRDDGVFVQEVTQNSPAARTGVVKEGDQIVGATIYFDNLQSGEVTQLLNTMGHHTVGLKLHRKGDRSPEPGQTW
NHERF4_1, Q86UT5-2, sequence (Q86UT5 other isoform, or with tags, fused parts or gaps): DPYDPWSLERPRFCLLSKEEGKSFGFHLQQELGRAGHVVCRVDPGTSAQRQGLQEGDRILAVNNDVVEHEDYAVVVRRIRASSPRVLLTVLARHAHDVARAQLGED

Binder | pKd (NHERF4_1, Q86UT5-2) | pKd (AHNAK1, Q09666) | pKd (FRMPD1, Q5SYB0) | pKd (FRMPD3, Q5JV73) | pKd (NOS1, P29475) | pKd (DVL3, Q92997) | pKd (Inadl_10, Q8NI35) | pKd (DLG1_3, Q12959) | pKd (SCRIB_3, Q14160) | pKd (SCRIB_1, Q14160) | pKd (PTPN3, P26045) | pKd (DLG1_2, Q12959) | pKd (Inadl_5, Q8NI35) | pKd (TJP1_3, Q07157) | pKd (GRIP2_3, Q9C0E4) | pKd (Inadl_9, Q8NI35) | pKd (DFNB31_2, Q9P202) | pKd (GRIP1_5, Q9Y3R0) | pKd (Inadl_8, Q8NI35) | pKd (TJP2_1, Q9UDY2) | further results
EIPAQSPTCV [FZD10, Q9ULW2] | 3.91 | 3.57 | 3.56 | 3.49 | 4.17 | 3.6 | 3.55 | 4 | 3.99 | 3.81 | 3.77 | 3.86 | below the threshold | 3.65 | 3.61 | 4.6 | below the threshold | below the threshold | 4.35 | 3.82 | pKd (HTRA3, P83110): 3.95; pKd (LNX2_2, Q8N448): 5.04; pKd (Inadl_4, Q8NI35): 3.64; pKd (PDLIM1, O00151): 3.68; pKd (PDZRN4_1, Q6ZMN7): 3.63; pKd (DLG3_3, Q92796): 3.81; pKd (APBA1_2, Q02410): 4.77; pKd (APBA1_1, Q02410): below the threshold; pKd (GOPC, Q9HD26): 3.94
DPAESMESLV [PTPRG, P23470] | below the threshold | below the threshold | below the threshold | below the threshold | 3.74 | below the threshold | below the threshold | below the threshold | 3.92 | below the threshold | 4.61 | 5.03 | below the threshold | below the threshold | below the threshold | 3.73 | below the threshold | below the threshold | below the threshold | below the threshold | pKd (HTRA3, P83110): below the threshold; pKd (LNX2_2, Q8N448): 4.3; pKd (Inadl_4, Q8NI35): below the threshold; pKd (PDLIM1, O00151): below the threshold; pKd (PDZRN4_1, Q6ZMN7): 3.72; pKd (DLG3_3, Q92796): below the threshold; pKd (APBA1_2, Q02410): below the threshold; pKd (APBA1_1, Q02410): below the threshold; pKd (GOPC, Q9HD26): below the threshold
